# Measurements: publication PMC4609290
# pKd: −log10 of the molar value.
# Biological target: H3(15-34) peptide (UniProt P68431)
# Assay: ITC
substance,measurement,value
AF10PZP (as used for ITC) (from UniProt P55197-1 1-208) (domain or fragment),pKd,5.30
